Key:
[1] = tested on: IRE1α-mediated XBP-1 mRNA splicing; test: XBP-1 mRNA level and splicing in J558 cells (Northern blot, RT-PCR); assay type: cell-based; conditions: J558, Tm 4 hrs; MG-132 10 μM, PS-341 10 μM, ZL3VS 50 μM, AdaAhxL3VS 50 μM
Experimental: (A) XBP-1 mRNA levels in ER stressed J558 cells treated with Tm for 4 hrs in the absence or presence of MG-132. Cells were pretreated with MG-132 for 1 hr before adding Tm. XBP-1 mRNA levels were determined by Northern blot analysis. […] (C) Effect of a panel of PIs on XBP-1 splicing. Cells were treated with Tm for 4 hrs in the absence or presence of MG-132 (10 μM), PS-341 (10 μM), Lactacystin (10 μM), ZL3VS (50 μM) or AdaAhxL3VS (50 μM), and XBP-1 mRNA splicing measured by RT-PCR analysis. (D) IRE-1α phosphorylation in NIH3T3 cells were treated with Tm as indicated after 2 hrs of pretreatment with MG-132 (10 μM).
Total RNA was prepared by using Trizol reagent, electrophoresed on 1.2% agarose, 6% formaldehyde gels and then transferred onto Genescreen Plus membrane, (NEN, Boston, Mass.). […] Probes for ERdj4 and p58^IPK were generated from cDNA excised from EST clones (ATCC, Manassas, Va.) using appropriate restriction enzymes (ERdj4, IMAGE: 1920927; p58^IPK, IMAGE:2646147).

XBP-1 mRNA = XBP-1 mRNA induction by cytokines in purified splenic B cells (Northern blot); assay type: cell-based, mouse; conditions: 20 μg/ml cycloheximide added 30 min before IL-4, 4 hours
Experimental: (§1) Mouse splenocytes or purified B cells (purified mature B cells were isolated from spleen and lymph nodes by magnetic CD43 depletion or B220 magnetic bead selection, Miltenyi Biotech, Auburn Calif.) were plated at 1×10^6 cells/ml in complete media containing RPMI 1640 supplemented with 10% fetal calf serum (FBS)(Hyclone Laboratories), glutamine (2 mM), penicillin (50 units/ml), streptomycin (50 μg/ml), Hepes (100 mM), nonessential amino acids (1×) sodium pyruvate (1 mM) and β-ME (50 μM) and stimulated with anti-CD40(1 μg/ml)(Pharmigen) or LPS (20 μg/ml)(Sigma). Cytokines (R&D Systems, Minneapolis, Minn.) were used at IL-4 (20 ng/ml), IL-2 (20 ng/ml), Il-5 (20 ng/ml), IL-6 (20 ng/ml ), IL-10 (20 ng/ml ) and IL-13 (20 ng/ml). Stimulated B cells were split to a cell concentration of 1×10^6 cells/ml with fresh media every 24 h. The BCL1 (CWS13.20-3B3 ATCC CRL 1699) cell line was cultured in RPMI media supplemented with 10% FBS, gentamicin (20 μg/ml), and β-ME (50 μM). To induce differentiation cells were plated at 2×10^5 cells/ml and treated with recombinant mouse IL-2 and IL-5 (20 ng/ml) (R&D systems).
Total RNA was isolated using TriZo1 (Gibco-BRL) or Qiashedder/Rneasy RNA purification columns (Quiagen). Northern Blots were performed as described (Rengarajan et al., 2000 Immunity. 12:293-300). Briefly, 7-10 μg RNA were electrophoresed on 1.2% agarose, 6% formaldehyde gels transferred onto Genescreen membrane (NEN) and covalently bound to the membrane using UV Stratalinker (Stratagene). The following probes were used after ^32P-radiolabeling with the ReadyPrime labeling system (Amersham-Pharmacia): XBP-1 (15-830 of the murine coding region), GRP94 and GRP78 (both a kind gift of R. J. Kaufman Univ. of Michigan (Lee et al., 2002)), Blimp (Nco1-Sca1 fragment), c-myc cDNA and Il-6 cDNA . […]
Since XBP-1 is required for terminal B cell differentiation, it was important to identify the stimuli that regulate XBP-1 gene expression. A plethora of cytokines (IL-2, IL-4, IL-5, IL-6, IL-10, IL-13) has been implicated in plasma cell differentiation both in vitro and in vivo (reviewed in Calame, K. L. (2001 Nat. Inimunol. 2: 1103-1108; Liu, Y. J., and Banchereau, J. (1997). Sem Immunol 9: 235; Zubler, 1997Sem. Hematol 34:13). It was possible that these cytokines effected terminal B cell differentiation by modulating XBP-1 gene expression. Thus, the ability of these cytokines to upregulate XBP-1 mRNA transcripts in B cells was tested. Purified splenic B cells were cultured for 24 h in the presence or absence of various cytokines and XBP-1 expression determined by Northern blot analysis. […] XBP-1 mRNA levels were determined by Northern blot analysis with γ-actin as control. […] XBP-1 mRNA levels were determined as above. […]

[2] = target: XBP-1s (spliced form of murine XBP-1 protein, 371 aa) (mouse) (UniProt O35426); test: cell-based or functional assay
BCL-1 cells = test: IgM secretion by retrovirally transduced BCL-1 cells (ELISA); assay type: cell-based
Experimental: as §1
(§2) Assays to measure immunoglobulin or cytokine levels in culture supernatants were performed as described (e.g., Hodge et al., 1996 Immunity. 4:397-405 or Science. 1996 274:1903-5).
The XBP-1 cDNAs for the unspliced (XBP-1u/s) and the spliced (XBP-1s) forms were PCR-amplified from the total RNA of untreated and tunicamycin treated NIH3T3 cells, respectively, with a primer set (5′-[…]-3′ (SEQ ID NO: 7) and 5′-[…]-3′) (SEQ ID NO: 8). XBP-1u form was generated by a PCR-based mutagenesis from XBP-unspliced/s cDNA so that the two G residues at position 532 and 535 were changed to A without changing amino acid sequences in the XBP-1u open reading frame. Numbers are based on the sequences from gene bank database (NM_013842 [gi:13775155]). These XBP-1 cDNAs were inserted into the GFP-RV retroviral vector by using blunt end ligation (Sambrook et al., 1989). EFFECTENE transfection (Quiagen) was used to introduce the DNA into the Phoenix cell line as described by manufacturer (e.g., Reimold et al., 2001 Nature. 412:300-7 or Int Immunol. 2001 13:241-8). Viral supernatants were harvested after 48 hours and frozen at −80° C. for later use. B cells were purified from mouse spleens using CD43 depletion or positive selection with B220+ magnetic beads as described by the manufacturer (MidiMacs, Miltenyi Biotech). B cell purity was generally near 95% as confirmed by flow cytometry. The B cells (10^6 cells /ml) were then activated in culture with LPS 10 μg/ml and F (ab′)2 anti-IgM (5 μg/ml Southern Biotechnology Associates Inc.) for 24 hours. […]

XBP-1^−/− B cells = test: Ig production by retrovirally transduced XBP-1-/- primary B cells (ELISA); assay type: cell-based, mouse; conditions: LPS 10 μg/ml 72 h
Experimental: as §2
(§3) The XBP-1 cDNAs for the unspliced (XBP-1u/s) and the spliced (XBP-1s) forms were PCR-amplified from the total RNA of untreated and tunicamycin treated NIH3T3 cells, respectively, with a primer set (5′-[…]-3′ (SEQ ID NO: 7) and 5′-[…]-3′) (SEQ ID NO: 8). XBP-1u form was generated by a PCR-based mutagenesis from XBP-unspliced/s cDNA so that the two G residues at position 532 and 535 were changed to A without changing amino acid sequences in the XBP-1u open reading frame. Numbers are based on the sequences from gene bank database (NM_013842 [gi:13775155]). These XBP-1 cDNAs were inserted into the GFP-RV retroviral vector by using blunt end ligation (Sambrook et al., 1989). EFFECTENE transfection (Quiagen) was used to introduce the DNA into the Phoenix cell line as described by manufacturer (e.g., Reimold et al., 2001 Nature. 412:300-7 or Int Immunol. 2001 13:241-8). Viral supernatants were harvested after 48 hours and frozen at −80° C. for later use. B cells were purified from mouse spleens using CD43 depletion or positive selection with B220+ magnetic beads as described by the manufacturer (MidiMacs, Miltenyi Biotech). B cell purity was generally near 95% as confirmed by flow cytometry. The B cells (10^6 cells /ml) were then activated in culture with LPS 10 μg/ml and F (ab′)2 anti-IgM (5 μg/ml Southern Biotechnology Associates Inc.) for 24 hours. The 1 ml of activated B cells (10^6 cells/ml) were mixed with 4 μg of polybrene and 1 ml of virus-containing supernatant and spun at 1000 g for 45 minutes at 24° C. Cells were incubated for 24-36 h at 37° C. and then GFP+ cells were flow sorted and returned to culture with and without stimulation.
The effects of these three different forms of XBP-1 on Ig secretion were compared in wild type and XBP-1^−/− B cells. In vitro activated splenic B cells were transduced using retroviruses expressing bicistronic mRNA encoding XBP-1u/s, XBP-1s, XBP-1u or control GFP. In FIGS. 5(A) and (B) purified B cells from wt and XBP-1^−/− mice were activated in culture with LPS 10 μg/ml and F (ab′)2 anti-IgM (5 μg/ml) for 24 hours. Retroviral transduction with GFP alone (GFP-Rv), XBP-1u/s (XBP-1u/s GFP Rv), XBP-1s (XBP-1s GFP Rv) or XBP-1u (XBP-1u GFP Rv) of activated B cells was performed. Cells were incubated for 24-36 h at 37° C. and then GFP+ cells were flow sorted and then returned to culture with LPS stimulation (10 μg/ml) for 72 h. IgM panel(A) and IgG2b panel (B) production analyzed by ELISA from culture supernatants of stimulated B cells. Experiments were done at least three times and standard deviation is shown.

IL-6 = IL-6 production by retrovirally transduced wt and XBP-1-/- B cells (ELISA, Northern blot); assay type: cell-based, murine; conditions: LPS 72 h
Experimental: as §2, §3
In human multiple myeloma cells, XBP-1 was induced by IL-6 treatment and implicated in the proliferation of malignant plasma cells (Wen et al., 1999). However, no role for IL-6 in upregulating XBP-1 transcripts or in mediating splicing of XBP-1 RNA in mature B cells has been described (FIG. 6A). The ability of XBP-1 to induce IL-6 production in wt and XBP-1^−/− primary B cells was tested. As described above, in vitro activated murine splenic B cells were transduced using retroviruses expressing bicistronic mRNA for XBP-1u/s, XBP-1s, XBP-1u and control GFP. After cell sorting, GFP^+ cells were stimulated with LPS and assayed for cytokine production after 72 h. In FIG. 6 panel (A) purified B cells from wt and XBP-1^−/− mice were activated in culture with LPS 10 μg/ml and F(ab′)2 anti-IgM (5 μg/ml ) for 24 hours. Retroviral transduction with GFP alone (GFP-Rv), XBP-1u/s (XBP-1 u/s GFP Rv), XBP-1s (XBP-1s GFP Rv) or XBP-1u (XBP-1u GFP Rv) of activated B cells was performed. Cells were incubated for 24-36 h at 37° C. and then GFP+ cells were flow sorted and then returned to culture with LPS stimulation (10 μg/ml) for 72 h. Cytokine production was analyzed by ELISA from culture supernatants of stimulated B cells. Experiments were done at least three times and standard deviation is shown. In panel (B) Total RNAs were prepared from stimulated B cells above and XBP-1 mRNA levels were determined by Northern blot analysis with γ-actin control

**Q.** With `CC(C)C[C@@H](/C=C/S(C)(=O)=O)NC(=O)[C@H](CC(C)C)NC(=O)[C@H](CC(C)C)NC(=O)CCCCCNC(=O)CCCCCNC(=O)CCCCCNC(=O)CC12CC3CC(CC(C3)C1)C2` [AdaAhx3L3VS] as the molecule, how does the “effect on Tm-induced XBP-1 mRNA splicing” value [1] read?
**A.** suppressed XBP-1 mRNA splicing as efficiently as MG-132

**Q.** With `CC(C)C[C@@H](/C=C/S(C)(=O)=O)NC(=O)[C@H](CC(C)C)NC(=O)[C@H](CC(C)C)NC(=O)OCc1ccccc1` [ZL3VS] as the molecule, how does the “effect on Tm-induced XBP-1 mRNA splicing” value [1] read?
**A.** suppressed XBP-1 mRNA splicing as efficiently as MG-132

**Q.** For `C[C@@H]1C[C@@H]([C@H](O)CC2CC(=O)NC(=O)C2)C(=O)[C@@H](C)C1` [cycloheximide, reference compound], which “effect on IL-4-induced upregulation of XBP-1 mRNA” value (XBP-1 mRNA) is on record?
**A.** did not affect the upregulation of XBP-1 mRNA in response to IL-4

**Q.** Which results are given for “XBP-1u (unspliced form of murine XBP-1 protein, 267 aa) (from UniProt O35426 1-267)”?
**A.** fold induction of luciferase, XBP-luciferase reporter in NIH3T3 cells, 5 uM MG-132, with unspliced XBP-1 (fold induction) [2]: 5.8; fold induction of luciferase, XBP-luciferase reporter in NIH3T3 cells, 5 uM MG-132, without unspliced XBP-1 (fold induction) [2]: 41.9

**Q.** How did the relative luciferase activity in NIH 3T3 cells (44.5 with 200 ng of spliced XBP-1 alone) (relative luciferase activity) [2] turn out when “XBP-N136 (N terminal 136 amino acids of the spliced form of XBP-1) (from UniProt O35426 1-136)” was run?
**A.** 2.2

B1: XBP-1u/s: vector expressing XBP-1 mRNA giving the unspliced form and, upon IRE-dependent splicing, the spliced form (protein, UniProt O35426 1-267, looked up)
X-box-binding protein 1: MVVVAAAPSAATAAPKVLLLSGQPASGGRALPLMVPGPRAAGSEASGTPQARKRQRLTHLSPEEKALRRKLKNRVAAQTARDRKKARMSELEQQVVDLEEENHKLQLENQLLREKTHGLVVENQELRTRLGMDTLDPDEVPEVEAKGSGVRLVAGSAESAALRLCAPLQQVQAQLSPPQNIFPWTLTLLPLQILSLISFWAFWTSWTLSCFSNVLPQSLLVWRNSQRSTQKDLVPYQPPFLCQWGPHQPSWKPLMNSFVLTMYTPSL
modifications: GFP retroviral vector
notes: vector expressing XBP-1 mRNA giving the unspliced form and, upon IRE-dependent splicing, the spliced form
**Q.** For B1, which “IgM secretion compared to vector alone controls” value (BCL-1 cells; GFP positive BCL-1 cells treated with IL-2 and IL-5 for 3 days) is on record?
**A.** approximately threefold

**Q.** And the Ig secretion (BCL-1 cells; GFP positive BCL-1 cells untreated with cytokine)?
**A.** neither XBP-1u/s nor XBP-1s forms were able to induce Ig secretion

**Q.** What about the “secretion of IgM compared to control cells” value (XBP-1^−/− B cells) of the same molecule?
**A.** approximately ten-fold

**Q.** What about the “IL-6 secretion over control” value (IL-6) of the same molecule?
**A.** approximately 2 fold

From US20040170622A1, “Methods and compositions for modulating XBP-1 activity” (President and Fellows of Harvard College, priority 2002, published 2004)
